Reference: the supplement of paper PMC9112550, “Optimization of the antimicrobial peptide Bac7 by deep mutational scanning” (BMC Biology, 2022)

Test system: Escherichia coli TOP10
Assay: shrunken log2 fold change of peptide-encoding DNA abundance (4.5 h post-induction vs induction); higher = less antimicrobial activity (less host growth inhibition)
Details: time post-induction: 4.5 h; library: site-saturation at positions 5, 18, 19, 20
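Note: peptides expressed intracellularly from a pBAD plasmid library in pooled LB shake-flask culture, induced with 0.3% L-arabinose, DNA abundance read by NGS, three biological replicates, DESeq2 with apeglm shrinkage.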

RRIRPRPPRLPRPRPRPQLQPRP
shrunken log2 fold change: -0.167

RRIRPRPPRLPRPRPRPQMCPRP
shrunken log2 fold change: -0.101

RRIRPRPPRLPRPRPRPQMWPRP
shrunken log2 fold change: 0.0355

RRIRPRPPRLPRPRPRPQNSPRP
shrunken log2 fold change: -0.469

RRIRPRPPRLPRPRPRPQPIPRP
shrunken log2 fold change: 0.0388

RRIRPRPPRLPRPRPRPQQDPRP
shrunken log2 fold change: -0.301

RRIRPRPPRLPRPRPRPQSQPRP
shrunken log2 fold change: -0.00349

RRIRPRPPRLPRPRPRPQSYPRP
shrunken log2 fold change: -0.202

RRIRPRPPRLPRPRPRPQWGPRP
shrunken log2 fold change: 0.132

RRIRPRPPRLPRPRPRPQWVPRP
shrunken log2 fold change: 0.0693

RRIRPRPPRLPRPRPRPQYCPRP
shrunken log2 fold change: -0.106

RRIRPRPPRLPRPRPRPQYGPRP
shrunken log2 fold change: -0.725

RRIRPRPPRLPRPRPRPQYHPRP
shrunken log2 fold change: -0.68

RRIRPRPPRLPRPRPRPQYSPRP
shrunken log2 fold change: -0.0482

RRIRPRPPRLPRPRPRPRCFPRP
shrunken log2 fold change: 0.155

RRIRPRPPRLPRPRPRPRCYPRP
shrunken log2 fold change: 0.0458

RRIRPRPPRLPRPRPRPRDMPRP
shrunken log2 fold change: 0.201

RRIRPRPPRLPRPRPRPRDWPRP
shrunken log2 fold change: 0.531

RRIRPRPPRLPRPRPRPRFTPRP
shrunken log2 fold change: 0.116

RRIRPRPPRLPRPRPRPRGCPRP
shrunken log2 fold change: 0.251

RRIRPRPPRLPRPRPRPRHCPRP
shrunken log2 fold change: 0.115

RRIRPRPPRLPRPRPRPRHSPRP
shrunken log2 fold change: -0.0642

RRIRPRPPRLPRPRPRPRKEPRP
shrunken log2 fold change: -0.157

RRIRPRPPRLPRPRPRPRKIPRP
shrunken log2 fold change: -0.0764

RRIRPRPPRLPRPRPRPRLNPRP
shrunken log2 fold change: 0.307

RRIRPRPPRLPRPRPRPRMHPRP
shrunken log2 fold change: 0.115

RRIRPRPPRLPRPRPRPRMIPRP
shrunken log2 fold change: 0.0799

RRIRPRPPRLPRPRPRPRMMPRP
shrunken log2 fold change: 0.323

RRIRPRPPRLPRPRPRPRNCPRP
shrunken log2 fold change: 0.0981

RRIRPRPPRLPRPRPRPRPWPRP
shrunken log2 fold change: 0.212

RRIRPRPPRLPRPRPRPRQRPRP
shrunken log2 fold change: 0.382

RRIRPRPPRLPRPRPRPRREPRP
shrunken log2 fold change: 0.187

RRIRPRPPRLPRPRPRPRSGPRP
shrunken log2 fold change: 0.0638

RRIRPRPPRLPRPRPRPRSSPRP
shrunken log2 fold change: 0.151

RRIRPRPPRLPRPRPRPRTHPRP
shrunken log2 fold change: 0.107

RRIRPRPPRLPRPRPRPRTYPRP
shrunken log2 fold change: -0.196

RRIRPRPPRLPRPRPRPRVAPRP
shrunken log2 fold change: 0.743

RRIRPRPPRLPRPRPRPRVLPRP
shrunken log2 fold change: -0.0343

RRIRPRPPRLPRPRPRPRWFPRP
shrunken log2 fold change: 0.405

RRIRPRPPRLPRPRPRPRWMPRP
shrunken log2 fold change: 0.412

RRIRPRPPRLPRPRPRPRWPPRP
shrunken log2 fold change: 0.616

RRIRPRPPRLPRPRPRPSCMPRP
shrunken log2 fold change: -0.279

RRIRPRPPRLPRPRPRPSDKPRP
shrunken log2 fold change: -0.264

RRIRPRPPRLPRPRPRPSEHPRP
shrunken log2 fold change: -0.233

RRIRPRPPRLPRPRPRPSFAPRP
shrunken log2 fold change: 0.258

RRIRPRPPRLPRPRPRPSFDPRP
shrunken log2 fold change: -0.248

RRIRPRPPRLPRPRPRPSFGPRP
shrunken log2 fold change: -0.156

RRIRPRPPRLPRPRPRPSGPPRP
shrunken log2 fold change: -0.174

RRIRPRPPRLPRPRPRPSHDPRP
shrunken log2 fold change: -0.339

RRIRPRPPRLPRPRPRPSHMPRP
shrunken log2 fold change: -0.466

RRIRPRPPRLPRPRPRPSIDPRP
shrunken log2 fold change: -0.598

RRIRPRPPRLPRPRPRPSIRPRP
shrunken log2 fold change: -0.306

RRIRPRPPRLPRPRPRPSLRPRP
shrunken log2 fold change: 0.0129

RRIRPRPPRLPRPRPRPSNTPRP
shrunken log2 fold change: -0.316

RRIRPRPPRLPRPRPRPSPNPRP
shrunken log2 fold change: 1.14

RRIRPRPPRLPRPRPRPSQGPRP
shrunken log2 fold change: -0.418

RRIRPRPPRLPRPRPRPSRRPRP
shrunken log2 fold change: -0.179

RRIRPRPPRLPRPRPRPSRTPRP
shrunken log2 fold change: 0.198

RRIRPRPPRLPRPRPRPSRYPRP
shrunken log2 fold change: -0.163

RRIRPRPPRLPRPRPRPSSEPRP
shrunken log2 fold change: 0.174

RRIRPRPPRLPRPRPRPSVNPRP
shrunken log2 fold change: -0.44

RRIRPRPPRLPRPRPRPSWIPRP
shrunken log2 fold change: -0.179

RRIRPRPPRLPRPRPRPTCRPRP
shrunken log2 fold change: 0.418

RRIRPRPPRLPRPRPRPTCSPRP
shrunken log2 fold change: 0.265

RRIRPRPPRLPRPRPRPTDAPRP
shrunken log2 fold change: 0.12

RRIRPRPPRLPRPRPRPTDFPRP
shrunken log2 fold change: -0.193

RRIRPRPPRLPRPRPRPTDRPRP
shrunken log2 fold change: 0.121

RRIRPRPPRLPRPRPRPTDWPRP
shrunken log2 fold change: 0.257

RRIRPRPPRLPRPRPRPTEGPRP
shrunken log2 fold change: -0.0468

RRIRPRPPRLPRPRPRPTEIPRP
shrunken log2 fold change: 0.000528

RRIRPRPPRLPRPRPRPTFIPRP
shrunken log2 fold change: -0.243

RRIRPRPPRLPRPRPRPTHFPRP
shrunken log2 fold change: 0.442

RRIRPRPPRLPRPRPRPTHVPRP
shrunken log2 fold change: 0.317

RRIRPRPPRLPRPRPRPTIFPRP
shrunken log2 fold change: 0.0842

RRIRPRPPRLPRPRPRPTIQPRP
shrunken log2 fold change: -0.101

RRIRPRPPRLPRPRPRPTKGPRP
shrunken log2 fold change: 0.0911

RRIRPRPPRLPRPRPRPTKHPRP
shrunken log2 fold change: -0.131

RRIRPRPPRLPRPRPRPTKMPRP
shrunken log2 fold change: 0.0417

RRIRPRPPRLPRPRPRPTKWPRP
shrunken log2 fold change: 0.187

RRIRPRPPRLPRPRPRPTLIPRP
shrunken log2 fold change: -0.169

RRIRPRPPRLPRPRPRPTMPPRP
shrunken log2 fold change: -0.144

RRIRPRPPRLPRPRPRPTMQPRP
shrunken log2 fold change: 0.393

RRIRPRPPRLPRPRPRPTNTPRP
shrunken log2 fold change: -0.375

RRIRPRPPRLPRPRPRPTSLPRP
shrunken log2 fold change: 0.044

RRIRPRPPRLPRPRPRPTSWPRP
shrunken log2 fold change: 0.769

RRIRPRPPRLPRPRPRPTTQPRP
shrunken log2 fold change: 0.0237

RRIRPRPPRLPRPRPRPTVIPRP
shrunken log2 fold change: -0.28

RRIRPRPPRLPRPRPRPTVNPRP
shrunken log2 fold change: -0.157

RRIRPRPPRLPRPRPRPTWAPRP
shrunken log2 fold change: 0.381

RRIRPRPPRLPRPRPRPTWFPRP
shrunken log2 fold change: 0.0698

RRIRPRPPRLPRPRPRPTWGPRP
shrunken log2 fold change: 0.593

RRIRPRPPRLPRPRPRPTWTPRP
shrunken log2 fold change: 0.071

RRIRPRPPRLPRPRPRPVAKPRP
shrunken log2 fold change: 0.236

RRIRPRPPRLPRPRPRPVCAPRP
shrunken log2 fold change: 0.396

RRIRPRPPRLPRPRPRPVCPPRP
shrunken log2 fold change: 0.0159

RRIRPRPPRLPRPRPRPVDRPRP
shrunken log2 fold change: 0.115

RRIRPRPPRLPRPRPRPVDVPRP
shrunken log2 fold change: -0.0323

RRIRPRPPRLPRPRPRPVEGPRP
shrunken log2 fold change: 0.0448

RRIRPRPPRLPRPRPRPVFNPRP
shrunken log2 fold change: -0.344

RRIRPRPPRLPRPRPRPVFTPRP
shrunken log2 fold change: -0.0534

RRIRPRPPRLPRPRPRPVGSPRP
shrunken log2 fold change: 0.261

RRIRPRPPRLPRPRPRPVKAPRP
shrunken log2 fold change: 0.216

RRIRPRPPRLPRPRPRPVKGPRP
shrunken log2 fold change: 0.203

RRIRPRPPRLPRPRPRPVLAPRP
shrunken log2 fold change: 0.668

RRIRPRPPRLPRPRPRPVMDPRP
shrunken log2 fold change: 0.0311

RRIRPRPPRLPRPRPRPVMNPRP
shrunken log2 fold change: -0.29

RRIRPRPPRLPRPRPRPVNHPRP
shrunken log2 fold change: -0.277

RRIRPRPPRLPRPRPRPVNIPRP
shrunken log2 fold change: -0.226

RRIRPRPPRLPRPRPRPVPNPRP
shrunken log2 fold change: 0.14

RRIRPRPPRLPRPRPRPVPSPRP
shrunken log2 fold change: 0.448

RRIRPRPPRLPRPRPRPVRPPRP
shrunken log2 fold change: 0.854

RRIRPRPPRLPRPRPRPVRRPRP
shrunken log2 fold change: 0.418

RRIRPRPPRLPRPRPRPVSKPRP
shrunken log2 fold change: -0.166

RRIRPRPPRLPRPRPRPVSNPRP
shrunken log2 fold change: -0.622

RRIRPRPPRLPRPRPRPVSYPRP
shrunken log2 fold change: -0.245

RRIRPRPPRLPRPRPRPVTCPRP
shrunken log2 fold change: -0.237

RRIRPRPPRLPRPRPRPVTYPRP
shrunken log2 fold change: -0.0866

RRIRPRPPRLPRPRPRPVWNPRP
shrunken log2 fold change: -0.109

RRIRPRPPRLPRPRPRPVYKPRP
shrunken log2 fold change: -0.199

RRIRPRPPRLPRPRPRPVYRPRP
shrunken log2 fold change: -0.166

RRIRPRPPRLPRPRPRPWAEPRP
shrunken log2 fold change: 0.166

RRIRPRPPRLPRPRPRPWAIPRP
shrunken log2 fold change: -0.0391

RRIRPRPPRLPRPRPRPWCLPRP
shrunken log2 fold change: -0.514

RRIRPRPPRLPRPRPRPWDSPRP
shrunken log2 fold change: -0.456

RRIRPRPPRLPRPRPRPWGHPRP
shrunken log2 fold change: -0.0804

RRIRPRPPRLPRPRPRPWGSPRP
shrunken log2 fold change: 0.216

RRIRPRPPRLPRPRPRPWGVPRP
shrunken log2 fold change: -0.128

RRIRPRPPRLPRPRPRPWHKPRP
shrunken log2 fold change: -0.29

RRIRPRPPRLPRPRPRPWHQPRP
shrunken log2 fold change: 0.0649

RRIRPRPPRLPRPRPRPWHWPRP
shrunken log2 fold change: -0.0102

RRIRPRPPRLPRPRPRPWIMPRP
shrunken log2 fold change: -0.236

RRIRPRPPRLPRPRPRPWIQPRP
shrunken log2 fold change: 0.0178

RRIRPRPPRLPRPRPRPWKLPRP
shrunken log2 fold change: -0.0861

RRIRPRPPRLPRPRPRPWKYPRP
shrunken log2 fold change: -0.269

RRIRPRPPRLPRPRPRPWNCPRP
shrunken log2 fold change: -0.134

RRIRPRPPRLPRPRPRPWNQPRP
shrunken log2 fold change: -0.759

RRIRPRPPRLPRPRPRPWNSPRP
shrunken log2 fold change: -0.163

RRIRPRPPRLPRPRPRPWPWPRP
shrunken log2 fold change: 0.0232

RRIRPRPPRLPRPRPRPWRCPRP
shrunken log2 fold change: 0.199

RRIRPRPPRLPRPRPRPWSDPRP
shrunken log2 fold change: -0.267

RRIRPRPPRLPRPRPRPWSMPRP
shrunken log2 fold change: -0.155

RRIRPRPPRLPRPRPRPWSSPRP
shrunken log2 fold change: -0.977

RRIRPRPPRLPRPRPRPWTHPRP
shrunken log2 fold change: -0.0188

RRIRPRPPRLPRPRPRPWTTPRP
shrunken log2 fold change: -0.012

RRIRPRPPRLPRPRPRPWVEPRP
shrunken log2 fold change: 0.17

RRIRPRPPRLPRPRPRPWVFPRP
shrunken log2 fold change: 0.0691

RRIRPRPPRLPRPRPRPWVTPRP
shrunken log2 fold change: -0.00388

RRIRPRPPRLPRPRPRPWWMPRP
shrunken log2 fold change: 0.0483

RRIRPRPPRLPRPRPRPWWYPRP
shrunken log2 fold change: -0.121

RRIRPRPPRLPRPRPRPWYGPRP
shrunken log2 fold change: -0.429
